Results reported in IntAct's records for PubMed 16614222.

B1: Phospholipase D alpha 1 (Arabidopsis thaliana (Mouse-ear cress)), Q38882 (parent)
chain: MAQHLLHGTLHATIYEVDALHGGGVRQGFLGKILANVEETIGVGKGETQLYATIDLQKARVGRTRKIKNEPKNPKWYESFHIYCAHLASDIIFTVKDDNPIGATLIGRAYIPVDQVINGEEVDQWVEILDNDRNPIQGGSKIHVKLQYFHVEEDRNWNMGIKSAKFPGVPYTFFSQRQGCKVSLYQDAHIPDNFVPRIPLAGGKNYEPQRCWEDIFDAISNAKHLIYITGWSVYAEIALVRDSRRPKPGGDVTIGELLKKKASEGVRVLLLVWDDRTSVDVLKKDGLMATHDEETENFFRGSDVHCILCPRNPDDGGSIVQSLQISTMFTHHQKIVVVDSEMPSRGGSEMRRIVSFVGGIDLCDGRYDTPFHSLFRTLDTVHHDDFHQPNFTGAAITKGGPREPWHDIHSRLEGPIAWDVMYNFEQRWSKQGGKDILVKLRDLSDIIITPSPVMFQEDHDVWNVQLFRSIDGGAAAGFPESPEAAAEAGLVSGKDNIIDRSIQDAYIHAIRRAKDFIYVENQYFLGSSFAWAADGITPEDINALHLIPKELSLKIVSKIEKGEKFRVYVVVPMWPEGLPESGSVQAILDWQRRTMEMMYKDVIQALRAQGLEEDPRNYLTFFCLGNREVKKDGEYEPAEKPDPDTDYMRAQEARRFMIYVHTKMMIVDDEYIIIGSANINQRSMDGARDSEIAMGGYQPHHLSHRQPARGQIHGFRMSLWYEHLGMLDETFLDPSSLECIEKVNRISDKYWDFYSSESLEHDLPGHLLRYPIGVASEGDITELPGFEFFPDTKARILGTKSDYLPPILTT

Variants of: B1
Conditions: with xlg3_arath XLG3, Q9C516

effect of a mutation on the interaction | Variant
decreasing interaction | E563A
decreasing interaction | F565A
decreasing interaction | K564A
